Where a chain is given by its changes, count along the chain named. Names may count otherwise.

Experiment [1] has as its target T1, A1 domain of vWF (UniProt P04275 1261-1468, limits assumed).
T1 construct: domain: A1 domain; also called vWF A1 domain
As to the kind of experiment: SPR (BIAcore), vWF A1 domain on sensor-chip.
Protocol: (§1) The kinetic constants, kₒₙ and koff, were deduced from the obtained sensorgrams and used to calculate the equilibrium dissociation constant, KD. […] For these experiments, the samples were diluted to a 2 nM concentration. The initial binding rate was determined from the association phase of the sensorgram by linear fitting of the data points obtained between 5 and 25 seconds after the injection start and the reported value is the average of 5 independent measurements.

Experiment [2] deals with T1, A1 domain of vWF. As to the kind of experiment: BIAcore initial binding rate, vWF A1 domain on sensor-chip, stored sample. In general terms: SPR reads the build-up and loss of mass on a sensor chip optically.
Protocol: as §1
In experiment [3] the target is T1, A1 domain of vWF. As to the kind of experiment: SPR (Biacore), A1 domain of VWF.
Experiment [4] concerns the target T1, A1 domain of vWF. As to the kind of experiment: SPR (BIAcore), vWF A1 domain on sensor-chip. This is another data set of the same source.
Protocol: as §1
Experiment [5] addresses T1, A1 domain of vWF. As to the kind of experiment: SPR (BIAcore), immobilized vWF A1 domain; M78A mutant.
Protocol: as §1
Experiment [6] concerns the target T1, A1 domain of vWF. As to the kind of experiment: SPR (BIAcore), immobilized vWF A1 domain; M34A mutant.
Protocol: as §1
For experiment [7], the target named is T1, A1 domain of vWF. As to the kind of experiment: SPR (BIAcore), immobilized vWF A1 domain; M83A mutant.
Protocol: as §1
For experiment [8], the target named is T2, human RANKL (human, UniProt O14788 140-317, limits assumed).
T2 sequence (looked up): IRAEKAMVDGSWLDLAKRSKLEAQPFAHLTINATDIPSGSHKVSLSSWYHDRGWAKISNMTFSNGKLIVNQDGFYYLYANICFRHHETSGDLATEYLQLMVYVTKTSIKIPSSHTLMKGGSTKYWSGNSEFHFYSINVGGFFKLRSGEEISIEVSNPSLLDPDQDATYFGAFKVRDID
As to the kind of experiment: AlphaScreen competition against the human RANKL / human RANK-Fc interaction. On the technique in general: Bead proximity is the source of the signal in Alpha formats.
Protocol: (§2) Finally, streptavidin coated donor beads (20 ug/ml) were added. After 1 hour of incubation plates were read on the Envison Alphascreen reader (PerkinElmer). All experiments were performed in duplicate.

The target in experiment [9] is T2, human RANKL. As to the kind of experiment: AlphaScreen competition: Nanobody titrated against the interaction of human RANKL (1 nM) with biotinylated human RANK-Fc (3 nM); acceptor beads with anti-RANKL MAb BN-12, streptavidin donor beads.
Protocol: as §2
For experiment [10], the target named is T1, A1 domain of vWF. As to the kind of experiment: PLA potency assay (Biacore) on RPC fraction, first experiment.
Protocol: (§3) To determine the potency (i.e. looking at affinity measurements) of the −18Da product related variant, post-peak 1 was collected during RP-HPLC separation and directly measured in the PLA potency assay. Similar to what was done for pre-peak 1, the elution fraction representing post-peak 1 was first dried using a speedvac (miVac Duo Concentrator, Genevac) and then re-solubilized in PBS. […] Three independent but slightly different experiments were performed. In a first experiment the concentration after reconstitution was determined spectrophotometrically and no Tween was added to the PBS. In a second experiment, 0.02% Tween was present in the PBS at the time of reconstitution of the dried material (to prevent loss of protein from the relatively dilute samples) and the concentration was deduced from the peak area in a re-analysis by RP-HPLC. The RPC re-analysis also confirmed the identity of the isolated material. In a third experiment, we additionally diluted the purified main peak material to about the same concentration as the post-peak variant so to eliminate as much as possible any dissimilarities between the main and the post-peak samples. […]
Experiment [11] deals with T1, A1 domain of vWF. As to the kind of experiment: PLA potency assay (Biacore) on RPC fraction, second experiment.
Protocol: as §3
The target of experiment [12] is T1, A1 domain of vWF. As to the kind of experiment: Biacore potency assay.

B1: SEQ ID NO: 2 D62A (VHH)
VHH: EVQLVESGGGLVQPGGSLRLSCAASGRTFSYNPMGWFRQAPGKGRELVAAISRTGGSTYYPASVEGRFTISRDNAKRMVYLQMNSLRAEDTAVYYCAAAGVRAEDGRVRTLPSEYTFWGQGTQVTVSS
One may read the Kd as a measure of binding affinity in units of concentration. Low readings indicate tighter binding, high ones weaker binding. In the case of B1, the affinity with A1 domain of vWF [1], expressed as Kd, was 1 nM. In the experiment with A1 domain of vWF [2], the “% activity after 4 wks at 37° C. (initial binding rate against time zero)” value (from here on “% activity after 4 wks”) was 88.4% and the “% activity after 8 wks at 37° C. (initial binding rate against time zero)” value (“% activity after 8 wks” for short) came to 87.4%.

B2: SEQ ID NO: 2 D105S (VHH)
VHH: B1 VHH with A62D, D105S
On to B2, for which, in the experiment with A1 domain of vWF [1], binding was put at a Kd of 3.7 nM. In addition, in the experiment with A1 domain of vWF [2], the “% activity after 4 wks” value is 93.7% and the “% activity after 8 wks” value turned out to be 94.2%.

B3: Stab. 12A2H1; SEQ ID NO: 2 with E1D, D62E, M78T, D105Q (VHH)
VHH: B1 VHH with E1D, A62E, M78T, D105Q
notes: also called 12A2H1 SV1; 12A2h1SV1
As a reminder, the koff is the rate constant with which the complex falls apart. One may read the kon as the rate constant with which the complex forms. Read a low kon as slower complex formation. Turning to B3, in the experiment with A1 domain of vWF [3], the Kd worked out at 0.986 nM, the dissociation rate constant (koff) stood at 0.0207 s⁻¹ and the kon came out at 2.1e+07 M⁻¹ s⁻¹.

B4: SEQ ID NO: 2 S63G (VHH)
VHH: B1 VHH with A62D, S63G
B4 registered a dissociation constant Kd with A1 domain of vWF [1] of 1.2 nM. Besides, in the experiment with A1 domain of vWF [2], the “% activity after 4 wks” value came out at 95.5% and the “% activity after 8 wks” value was determined as 83.8%.

B5: SEQ ID NO: 2 D105A (VHH)
VHH: B1 VHH with A62D, D105A
On to B5, for which the “fold drop in affinity against wild type SEQ ID NO: 2” value in the experiment with A1 domain of vWF [4] came to 10 fold. In the experiment with A1 domain of vWF [1], this molecule had a Kd of 9.3 nM. Moreover, in the experiment with A1 domain of vWF [2], the “% activity after 8 wks” value was 98.7%.

B6: SEQ ID NO: 2 D105Q (VHH)
VHH: B1 VHH with A62D, D105Q
As to B6, in the experiment with A1 domain of vWF [1], the affinity, expressed as Kd, was 1.1 nM. Also, in the experiment with A1 domain of vWF [2], the “% activity after 4 wks” value stood at 97.6% and the “% activity after 8 wks” value came out at 90.8%.

B7: SEQ ID NO: 2 D105N (VHH)
VHH: B1 VHH with A62D, D105N
Turning to B7, the Kd with A1 domain of vWF [1] was found to be 0.8 nM. For the same molecule, in the experiment with A1 domain of vWF [2], the “% activity after 4 wks” value stood at 29.5% and the “% activity after 8 wks” value is 32.7%.

B8: SEQ ID NO: 2 M78A (VHH)
VHH: B1 VHH with A62D, M78A
In turn, B8 showed a Kd with A1 domain of vWF [5] of 1.46 nM.

B9: SEQ ID NO: 2 D105T (VHH)
VHH: B1 VHH with A62D, D105T
Consider B9, for which the equilibrium dissociation constant (Kd) with A1 domain of vWF [1] is 7.2 nM. Further, in the experiment with A1 domain of vWF [2], the “% activity after 4 wks” value was determined as 101% and the “% activity after 8 wks” value is 96%.

B10: SEQ ID NO: 2 M34A (VHH)
VHH: B1 VHH with M34A, A62D
B10 showed an equilibrium dissociation constant (Kd) with A1 domain of vWF [6] of 1.96 nM.

B11: SEQ ID NO: 2 D62E (VHH)
VHH: B1 VHH with A62E
On to B11, for which, in the experiment with A1 domain of vWF [1], the dissociation constant Kd turned out to be 1.3 nM. In addition, in the experiment with A1 domain of vWF [2], the “% activity after 4 wks” value was 89.6% and the “% activity after 8 wks” value was found to be 80.2%.

B12: SEQ ID NO: 2 M83A (VHH)
VHH: B1 VHH with A62D, M83A
For B12, the Kd with A1 domain of vWF [7] is 1.29 nM.

B13: SEQ ID NO: 2 D105E (VHH)
VHH: B1 VHH with A62D, D105E
With B13, the equilibrium dissociation constant (Kd) in the experiment with A1 domain of vWF [1] was found to be 4.4 nM. Besides, the “% activity after 8 wks” value with A1 domain of vWF [2] turned out to be 98.8%.

B14: RANKL-1_D62E (VHH)
VHH: EVQLVESGGGLVQPGGSLRLSCAASGFTFSSYPMGWFRQAPGKGREFVSSITGSGGSTYYAESVKGRFTISRDNAKNTLYLQMNSLRPEDTAVYYCAAYIRPDTYLSRDYRKYDYWGQGTLVTVSS
notes: Expressed from pAX054 in the periplasm of E. coli; not shown: C-terminal c-myc tag and (His)6 tag coded by vector pAX054
Turning to B14, the “IC50 (read off the curve)” value in the experiment with human RANKL [8] is ~0.1 nM.

B15: RANKL-1 (VHH)
VHH: B14 VHH with E62D
notes: as for B14
As usually defined, the IC50 is the point on the concentration scale where inhibition reaches its midpoint. Consider B15, for which the “IC50 (read off the curve)” value in the experiment with human RANKL [8] is ~0.1 nM. This molecule also registered a concentration for half-maximal inhibition (IC50) with human RANKL [9] of 0.114 nM.

B16: SEQ ID NO: 1, ALX-0081 (VHH)
chain: EVQLVESGGGLVQPGGSLRLSCAASGRTFSYNPMGWFRQAPGKGRELVAAISRTGGSTYYPDSVEGRFTISRDNAKRMVYLQMNSLRAEDTAVYYCAAAGVRAEDGRVRTLPSEYTFWGQGTQVTVSSAAAEVQLVESGGGLVQPGGSLRLSCAASGRTFSYNPMGWFRQAPGKGRELVAAISRTGGSTYYPDSVEGRFTISRDNAKRMVYLQMNSLRAEDTAVYYCAAAGVRAEDGRVRTLPSEYTFWGQGTQVTVSS
notes: Produced in E. coli; also called BATCH 1; RPC main peak
Turning to B16, the figures for the “potency relative to reference SEQ ID NO:1” value with A1 domain of vWF [10] and with A1 domain of vWF [11] were 91.9% and 50%, respectively.

B17: SEQ ID NO: 1 RPC post-peak 1 (single norleucine mis-incorporation, -18 Da) (VHH)
chain: B16 chain
modifications: norleucine in place of one methionine (site not determined), -18 Da
notes: Collected from RP-HPLC and reconstituted before the potency assay; also called -18Da product related variant
In the case of B17, the entries for the “potency relative to reference SEQ ID NO:1” value in the experiment with A1 domain of vWF [10] and with A1 domain of vWF [11] were 51.6% and 81%, respectively.

B18: SEQ ID NO: 1 E1Q, fraction E1Q-a (cyclized pyroglutamate form) (VHH)
chain: B16 chain with E1Q
modifications: N-terminal pyroglutamate (cyclized Q1)
notes: Fraction of the E1Q mutant from a monoS column; mass 27857 Da
On to B18, for which the “potency relative to BATCH 1 (average)” value in the experiment with A1 domain of vWF [12] is 105%.

The values above are taken from patent US20110183861A1 (ABLYNN N V, published 2011).
